This note sets out measurements from article PMC8086558, “Membrane Interactions of the Peroxisomal Proteins PEX5 and PEX14” (Frontiers in Cell and Developmental Biology, 2021).

First the molecules themselves.
B1: PEX5 NTD (residues 1–315) (domain or fragment)
chain: not shown
notes: human PEX5, N-terminal intrinsically disordered domain, residues 1-315, codon-optimised synthetic gene; harbours eight WF-like motifs (W0-W7); No primer pair is printed for the 1-315 construct; also called PEX5 (1–315); Pex5 (1–315); source: E. coli BL21 (DE3), purified (Ni-NTA under urea lysis, SEC Superdex S75), lyophilized; not shown: His6, N-terminal, kept
B2: PEX14 NTD (residues 1–104) (domain or fragment, human, UniProt O75381 1-104, looked up)
chain: MASSEQAEQPSQPSSTPGSENVLPREPLIATAVKFLQNSRVRQSPLATRRAFLKKKGLTDEEIDMAFQQSGTAADEPSSLGPATQVVPVQPPHLISQPYSPAGS
notes: human PEX14, N-terminal region up to the transmembrane span, residues 1-104, codon-optimised synthetic gene; holds the globular helical domain (residues 16-80); also called PEX14 (1–104); Pex14 (1–104); source: E. coli BL21 (DE3), purified (Ni-NTA, TEV cleavage, reverse Ni2+ column, SEC Superdex S75); not shown: His6, N-terminal, cleaved

Holding throughout (settings): both partners purified
Assay [1] has as its target B2. As to the kind of experiment: ITC; 50 uM PEX5 (1-315) injected into the cell with 30 uM PEX14 (1-104); 25 °C; 20 mM NaP pH 6.5, 100 mM NaCl, no bicelles; triplicates; one-site model, number of sites set to 1/8.
The target of assay [2] is B2. As to the kind of experiment: ITC; 50 uM PEX5 (1-315) injected into the cell with 30 uM PEX14 (1-104); 25 °C; 20 mM NaP pH 6.5, 100 mM NaCl with 44 uM DMPC/D7PC bicelles; triplicates; one-site model, number of sites set to 1/8. A general note: ITC needs no label: the signal is the heat of the interaction.
The target in assay [3] is B1. As to the kind of experiment: ITC; 50 uM PEX5 (1-315) injected into the cell with 30 uM PEX14 (1-104); 25 °C; 20 mM NaP pH 6.5, 100 mM NaCl, no bicelles; triplicates; one-site model, number of sites set to 1/8.
Assay [4] has as its target B1. As to the kind of experiment: ITC; 50 uM PEX5 (1-315) injected into the cell with 30 uM PEX14 (1-104); 25 °C; 20 mM NaP pH 6.5, 100 mM NaCl with 44 uM DMPC/D7PC bicelles; triplicates; one-site model, number of sites set to 1/8.

Take B1: in assay [1], the dH was -147 ± 7 kcal/mol and the stoichiometry N (commonly a count of units in the complex or per binding partner) is 0.125. In assay [2], the dH is -92 ± 3 kcal/mol and the “stoichiometry N” value turned out to be 0.125.
Turning to B2, the Kd (as a rule, the concentration at which binding is half-saturated) stood at 147 ± 16 nM in assay [3] and 260 ± 26 nM in assay [4].
